Measurements reported in patent US9920082B2, “Water-soluble complexing agents and corresponding lanthanide complexes” (CISBIO BIOASSAYS, priority 2013, dated 2018).

Columns and labels:
[1] = Photophysical properties of the complexes (λ max, quantum yield, life-time); assay type: physicochemical; details: solvent MeOH
Excerpt: The photophysical characteristics of some complexes are described in Table 3. […] The values of the quantum yields (Φcm) must be considered to have a margin of error of ±15%. All these complexes have quantum yields above 10%, without adding potassium fluorides. The life-times (τ0) are at least 0.7 ms, which is favorable for FRET experiments. Finally, the complexes comprising solubilizer groups of the sulfonate or carboxylate type are highly soluble in aqueous biological buffers. The presence of charges makes complexes water-soluble that were not so initially.

[2] = Determination of Log P (octanol/water partition coefficient) of europium complexes; assay type: physicochemical; details: water/octanol mixtures 2:1, 1:1, 1:2, about 2 μM, ±20%
Excerpt: Log P is a measure of the differential solubility of chemical compounds in two solvents (octanol/water partition coefficient). Log P is equal to the logarithm of the ratio of the concentrations of the substance under investigation in octanol and in water. Log P=Log(Coct/Cwater). This value ascertains the hydrophilic or hydrophobic (lipophilic) character of a molecule. In fact, if Log P is positive and very high, this expresses the fact that the molecule considered is far more soluble in octanol than in water, which reflects its lipophilic character, and vice versa. Zero or negative Log P signifies that the molecule is of a hydrophilic character.
Three equimolar solutions of europium complex were prepared in methanol. The solvent was removed under reduced pressure and the solid that remained was dissolved and stirred for 24 h in a water/octanol mixture (2:1, 1:1, 1:2), (0.9 mL) giving a total concentration of about 2 μM. After equilibration, an emission spectrum of each phase was recorded in methanol (50 μL of solution in 1 mL of methanol). For each mixture, the value of log P was calculated using the following equation: […]

Question: Which λ max [1] does the source give for COc1ccc(C#Cc2cc(CN3CCN(Cc4cc(C#Cc5ccc(OC)cc5)cc(P(C)(=O)O)n4)CCN(Cc4cc(C#Cc5ccc(OCC(=O)NCC(=O)N[C@@H](CCCNC(=N)N)C(=O)N[C@@H](CCCNC(=N)N)C(=O)N[C@@H](CCCNC(=N)N)C(=O)N[C@@H](CCCNC(=N)N)C(=O)N[C@@H](CCCNC(=N)N)C(=O)N[C@@H](CCCNC(=N)N)C(=O)N[C@@H](CCCNC(=N)N)C(=O)O)cc5)cc(P(C)(=O)O)n4)CC3)nc(P(C)(=O)O)c2)cc1 [Compound 89] here?
Answer: 330 nm

Question: And the τ0 [1]?
Answer: 1.12 ms

Question: What about the Φem ([1]; margin of error ±15%) of the same compound?
Answer: 50%

Question: And the logP [2]?
Answer: 0.3
